Data on 13 molecules can be found in paper PMC9884143 (The Journal of Biological Chemistry, 2023).

Positions count from the first letter of the chain named.

The target of assay [1] is T1, SARS-CoV-2 Spike receptor-binding domain (RBD), original strain (SARS-CoV-2, original strain, UniProt P0DTC2).
Assay [2] deals with T1, SARS-CoV-2 Spike receptor-binding …. Nature of the assay: SPR. The conditions noted are these: both partners purified.

B1: CoV2-YD-12 (VHH)
VHH: QVQLVESGGGLVQAGGSLRLSCAASGSTFSRLNILWWRQAAGKPREWVATSTDGGTRNYAAAVKGRFTISRDNAKNTVYLQMNSLKPEDTAVYYCYTPDYWGQGTQVTVS
With B1, the Kd – broadly, the constant that tells how readily two partners part at equilibrium – in assay [1] is 0.145 nM.

B2: CoV2-YD-5 (VHH)
VHH: QVQLVESGGGLVQAGGSLRLSCVASGTTISTYNLLWFRQAPGQQREWVASISSGGDTSYAGSVKGRFTISRDNTENTMYLQMNSLKPEDTAVYYCHGANAAHGMDYWGKGTQVTVS
In turn, B2 returned a Kd in assay [1] of 0.114 nM.

B3: CoV2-YD-13 (VHH)
VHH: QVQLVESGGGLVQAGGSLRLSCAASGFTFDDYAIGWFRQAPGKEREGVSCISSSGGFTNYADSVKGRFTISSDNAKNTVYLQMNSLKPEDTAVYYCAVVVNGYGLDEWAYDYWGQGTQVTVS
In turn, B3 displayed a Kd in assay [1] of 2.43 nM.

B4: CoV2-YD-14 (VHH)
VHH: QVQLVESGGGLVQAGGSLRLSCSASGNTFSTYSLSWYRQAPGKQREFVAAISSGGSTSYANSVKGRFSISRDNAKKTMYLQMNSLKPEDTAVYYCYVVTTLMDYWGQGTQVTVS
With B4, in assay [1], binding was characterised by a dissociation constant (Kd) of 0.152 nM.

B5: CoV2-YD-10 (VHH)
VHH: QVQLVESGGDLVQPGGSLRLSCAASGFTFSTYDMGWFRQGPGKEREFVAQIAPNGITTYYADSVKGRFTISRDNAKRMVFLQMNSLKPEDTAVYFCAVDLAPWGSLKLRTNPARGQGTQVTVS
On to B5, for which the binding result in assay [2] is “binds”.

B6: Rescue-1 (VHH)
VHH: DVQLVESGGGLVQAGDSLRLSCTASGRTFTTNAMGWFRQAPGKEREFVAAITWSYGTTYYSDPVEGRFTISRDNAKNTVYLQMNSLKPEDTAVYYCFYERLAWDTSTYWGQGTQVTVS
The molecule B6 registered a Kd in assay [1] of 50.9 nM.

B7: Rescue-2 (VHH)
VHH: B6 VHH with T52S, S54N, G56D
In assay [1], B7 displayed a Kd of 26.8 nM.

B8: Rescue-3 (VHH)
VHH: B6 VHH with T52S, S54N, Y55S, E65K
In assay [1], B8 came in with a Kd of 24.9 nM.

B9: CoV2-YD-35 (VHH)
VHH: DVQLVESGGGLVQAGDSLRLSCTASGRTFTTNAMGWFRQAPGKEREFVAAISWSYGTTYYSDPVEGRFTISRSNAKNTVYLQMNSLKPDDTAVYYCTLRSRFNAAAWTTEAAFDYWGQGTQVTVS
The molecule B9 returned a Kd in assay [1] of 0.14 nM.

B10: CoV2-YD-38 (VHH)
VHH: B9 VHH with T23A, S54N, Y55S, E65K, S73D, D89G, A105Y, A111N
B10 showed a Kd in assay [1] of 0.561 nM.

B11: CoV2-YD-37 (VHH)
VHH: B9 VHH with S54N, G56D
In turn, B11 showed a Kd in assay [1] of 0.411 nM.

B12: CoV2-YD-36 (VHH)
VHH: B9 VHH with D1Q, S52T
As for B12, binding in assay [1] was characterised by a dissociation constant (Kd) of 0.154 nM.

B13: CoV2-YD-11 (VHH)
VHH: QVQLVESGGGLVQAGGSLRLSCVVSGTTFSRYDMGWYRQAPGKARETVATISRSGTTNYAYFVKGRFTITRDNAKNTVYLQMNSLKPEDTAVYYCYIFGLDYWGQGTQVTVS
In assay [1], B13 displayed a Kd of 0.179 nM.
